Where a chain is given by its changes, count along the chain named. In names and notes the source's numbering stands. Several values for one entry are separate records, joined by “and”; a condition that tells them apart may be missing. Identical values can stand only once. Like-named read-outs stand apart in the source and are kept apart here.

What all share (test): cell-based or functional assay
The target of experiment [1] is T1, recombinant human APRIL (Tonbo Biosciences) (human, UniProt O75888 105-250, limits assumed).
T1 sequence (looked up): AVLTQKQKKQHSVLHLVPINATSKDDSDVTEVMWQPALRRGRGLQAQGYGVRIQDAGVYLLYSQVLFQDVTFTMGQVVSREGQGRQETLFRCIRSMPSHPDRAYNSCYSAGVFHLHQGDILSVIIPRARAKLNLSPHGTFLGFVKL

The target of experiment [2] is T2, recombinant human BAFF (BioLegend) (human, UniProt Q9Y275 134-285).
For experiment [3], the target named is BAFF 60-mer (an oligomer of twenty BAFF 3-mers).
Experiment [4] deals with T1, recombinant human APRIL (Tonbo …). This is another data set of the same source.
Experiment [5] concerns the target T2, recombinant human BAFF (BioLegend). This is another data set of the same source.
Experiment [6] has the same target. This is another data set of the same source.
The target in experiment [7] is T1, recombinant human APRIL (Tonbo …). The source holds these as a separate data set.
For experiment [8], the target named is T2, recombinant human BAFF (BioLegend). The source holds these as a separate data set.

B1: TACI WT 13 GSG4S (74) Fc 73(G4S)4 (84) (TACI WT 13 (SEQ ID NO: 202) (Fc fusion)
chain: SLSCRKEQGKFYDHLLRDCISCASICGQHPKQCAYFCENKLRSGSGGGGSEPKSSDKTHTCPPCPAPEAEGAPSVFLFPPKPKDTLMISRTPEVTCVVVDVSHEDPEVKFNWYVDGVEVHNAKTKPREEQYNSTYRVVSVLTVLHQDWLNGKEYKCKVSNKALPAPIEKTISKAKGQPREPQVYTLPPSRDELTKNQVSLTCLVKGFYPSDIAVEWESNGQPENNYKTTPPVLDSDGSFFLYSKLTVDKSRWQQGNVFSCSVMHEALHNHYTQKSLSLSPGGGGGSGGGGSGGGGSGGGGSSLSCRKEQGKFYDHLLRDCISCASICGQHPKQCAYFCENKLRS
For B1, the “APRIL IC50 (pM)” value in experiment [1] was determined as 11900 pM. Further, the “BAFF IC50 (pM)” value in experiment [2] was determined as 1040 pM. The “BAFF 60-mer IC50 (pM)” value in experiment [3] stood at 2580 pM.

B2: TACI 26 GSG4S (74) Fc 73 (G4S)4 (84) TACI 26 (SEQ ID NO: 201) (Fc fusion)
chain: B1 chain with K10E, F11Y, Y35D, K311E, F312Y, Y336D
In the case of B2, the “APRIL IC50 (pM)” value in experiment [1] amounted to 3760 pM. Also, the “BAFF IC50 (pM)” value in experiment [2] was determined as 779 pM. The “BAFF 60-mer IC50 (pM)” value in experiment [3] worked out at 778 pM.

B3: TACI WT 1 GS(G4S)2 (194) scFc_218 (SEQ ID NO: 203) (Fc fusion)
chain: VAMRSCPEEQYWDPLLGTCMSCKTICNHQSQRTCAAFCRSLSCRKEQGKFYDHLLRDCISCASICGQHPKQCAYFCENKLRSGSGGGGSGGGGSEPKSSDKTHTCPPCPAPEAEGAPSVFLFPPKPKDTLMISRTPEVTCVVVDVSHEDPEVKFNWYVDGVEVHNAKTKPREEQYNSTYRVVSVLTVLHQDWLNGKEYKCKVSNKALPAPIEKTISKAKGQPREPQVYTLPPSRDELTKNQVSLTCLVKGFYPSDIAVEWESNGQPENNYKTTPPVLDSDGSFFLYSKLTVDKSRWQQGNVFSCSVMHEALHNHYTQKSLSLSPGGGGGSGGGGSGGGGSGGGGSGGGGSGGGGSGGGGSGGGGSGGGGSGGGGSGGGGSGGGGSEPKSSDKTHTCPPCPAPEAEGAPSVFLFPPKPKDTLMISRTPEVTCVVVDVSHEDPEVKFNWYVDGVEVHNAKTKPREEQYNSTYRVVSVLTVLHQDWLNGKEYKCKVSNKALPAPIEKTISKAKGQPREPQVYTLPPSRDELTKNQVSLTCLVKGFYPSDIAVEWESNGQPENNYKTTPPVLDSDGSFFLYSKLTVDKSRWQQGNVFSCSVMHEALHNHYTQKSLSLSPG
As for B3, the “BAFF IC50 (pM)” value in experiment [2] was 4420 pM. For the same molecule, in experiment [3], the “BAFF 60-mer IC50 (pM)” value is 15800 pM.

B4: TACI WT 13 (G4S)4 (84) (TACI WT 13 GSG4S (74) Fc 73 (SEQ ID NO: 198) (Fc fusion)
chain: SLSCRKEQGKFYDHLLRDCISCASICGQHPKQCAYFCENKLRSGGGGSGGGGSGGGGSGGGGSSLSCRKEQGKFYDHLLRDCISCASICGQHPKQCAYFCENKLRSGSGGGGSEPKSSDKTHTCPPCPAPEAEGAPSVFLFPPKPKDTLMISRTPEVTCVVVDVSHEDPEVKFNWYVDGVEVHNAKTKPREEQYNSTYRVVSVLTVLHQDWLNGKEYKCKVSNKALPAPIEKTISKAKGQPREPQVYTLPPSRDELTKNQVSLTCLVKGFYPSDIAVEWESNGQPENNYKTTPPVLDSDGSFFLYSKLTVDKSRWQQGNVFSCSVMHEALHNHYTQKSLSLSPG
For B4, the “APRIL IC50 (pM)” value in experiment [1] turned out to be 34600 pM. Moreover, in experiment [2], the “BAFF IC50 (pM)” value was 3290 pM. Moreover, in experiment [3], the “BAFF 60-mer IC50 (pM)” value came out at 4330 pM.

B5: atacicept (WT TACI-Fc sequences corresponding to atacicept, containing WT TACI 30-110; SEQ ID NO:132) (Fc fusion)
chain: AMRSCPEEQYWDPLLGTCMSCKTICNHQSQRTCAAFCRSLSCRKEQGKFYDHLLRDCISCASICGQHPKQCAYFCENKLRSEPKSSDKTHTCPPCPAPEAEGAPSVFLFPPKPKDTLMISRTPEVTCVVVDVSHEDPEVKFNWYVDGVEVHNAKTKPREEQYNSTYRVVSVLTVLHQDWLNGKEYKCKVSNKALPSSIEKTISKAKGQPREPQVYTLPPSRDELTKNQVSLTCLVKGFYPSDIAVEWESNGQPENNYKTTPPVLDSDGSFFLYSKLTVDKSRWQQGNVFSCSVMHEALHNHYTQKSLSLSPGK
On to B5, for which the “IC50 (pM) APRIL” value in experiment [4] is 9260 pM. In addition, in experiment [5], the “IC50 (pM) BAFF” value was 8280 pM. Besides, in experiment [6], the “BAFF IC50 (pM)” value was 7740 pM and the “BAFF IC50 (Δ WT)” value turned out to be 4.17 ratio.

B6: TACI WT 13 GS(G4S)2 (194) sc_Fc 218 (SEQ ID NO: 196) (Fc fusion)
chain: SLSCRKEQGKFYDHLLRDCISCASICGQHPKQCAYFCENKLRSGSGGGGSGGGGSEPKSSDKTHTCPPCPAPEAEGAPSVFLFPPKPKDTLMISRTPEVTCVVVDVSHEDPEVKFNWYVDGVEVHNAKTKPREEQYNSTYRVVSVLTVLHQDWLNGKEYKCKVSNKALPAPIEKTISKAKGQPREPQVYTLPPSRDELTKNQVSLTCLVKGFYPSDIAVEWESNGQPENNYKTTPPVLDSDGSFFLYSKLTVDKSRWQQGNVFSCSVMHEALHNHYTQKSLSLSPGGGGGSGGGGSGGGGSGGGGSGGGGSGGGGSGGGGSGGGGSGGGGSGGGGSGGGGSGGGGSEPKSSDKTHTCPPCPAPEAEGAPSVFLFPPKPKDTLMISRTPEVTCVVVDVSHEDPEVKFNWYVDGVEVHNAKTKPREEQYNSTYRVVSVLTVLHQDWLNGKEYKCKVSNKALPAPIEKTISKAKGQPREPQVYTLPPSRDELTKNQVSLTCLVKGFYPSDIAVEWESNGQPENNYKTTPPVLDSDGSFFLYSKLTVDKSRWQQGNVFSCSVMHEALHNHYTQKSLSLSPG
As for B6, in experiment [2], the “BAFF IC50 (pM)” value was 5700 pM. Besides, the “BAFF 60-mer IC50 (pM)” value in experiment [3] turned out to be 24100 pM.

B7: TACI 26 GS(G4S)2 (194) scFc_218 (SEQ ID NO: 199) (Fc fusion)
chain: B6 chain with K10E, F11Y, Y35D
On to B7, for which the “BAFF IC50 (pM)” value in experiment [2] is 8240 pM. In addition, the “BAFF 60-mer IC50 (pM)” value in experiment [3] turned out to be 106000 pM.

B8: Telitacicept/Tai'ai (RemeGen) (Fc fusion)
chain: SRVDQEERFPQGLWTGVAMRSCPEEQYWDPLLGTCMSCKTICNHQSQRTCAAFCRSLSCRKEQGKFYDHLLRDCISCASICGQHPKQCAYFCENKLRSPVNLPPEL
With B8, the “IC50 (pM) APRIL” value in experiment [4] was determined as 17200 pM. In addition, the “IC50 (pM) BAFF” value in experiment [5] came to 6850 pM. For the same molecule, the “BAFF IC50 (pM)” value in experiment [6] is 9170 pM and 7300 pM.

B9: TACI WT 131 GS(G4S)2 (194) scFc_218 (SEQ ID NO: 205) (Fc fusion)
chain: SRVDQEERFPQGLWTGVAMRSCPEEQYWDPLLGTCMSCKTICNHQSQRTCAAFCRSLSCRKEQGKFYDHLLRDCISCASICGQHPKQCAYFCENKLRSPVNLPPELGSGGGGSGGGGSEPKSSDKTHTCPPCPAPEAEGAPSVFLFPPKPKDTLMISRTPEVTCVVVDVSHEDPEVKFNWYVDGVEVHNAKTKPREEQYNSTYRVVSVLTVLHQDWLNGKEYKCKVSNKALPAPIEKTISKAKGQPREPQVYTLPPSRDELTKNQVSLTCLVKGFYPSDIAVEWESNGQPENNYKTTPPVLDSDGSFFLYSKLTVDKSRWQQGNVFSCSVMHEALHNHYTQKSLSLSPGGGGGSGGGGSGGGGSGGGGSGGGGSGGGGSGGGGSGGGGSGGGGSGGGGSGGGGSGGGGSEPKSSDKTHTCPPCPAPEAEGAPSVFLFPPKPKDTLMISRTPEVTCVVVDVSHEDPEVKFNWYVDGVEVHNAKTKPREEQYNSTYRVVSVLTVLHQDWLNGKEYKCKVSNKALPAPIEKTISKAKGQPREPQVYTLPPSRDELTKNQVSLTCLVKGFYPSDIAVEWESNGQPENNYKTTPPVLDSDGSFFLYSKLTVDKSRWQQGNVFSCSVMHEALHNHYTQKSLSLSPG
In the case of B9, the “BAFF IC50 (pM)” value in experiment [2] is 4580 pM. In experiment [3], the “BAFF 60-mer IC50 (pM)” value came to 14300 pM.

B10: belimumab, anti-BAFF monoclonal antibody (antibody, V domains shown)
VH: QVQLQQSGAEVKKPGSSVRVSCKASGGTFNNNAINWVRQAPGQGLEWMGGIIPMFGTAKYSQNFQGRVAITADESTGTASMELSSLRSEDTAVYYCARSRDLLLFPHHALSPWGRGTMVTVSS
VL: SSELTQDPAVSVALGQTVRVTCQGDSLRSYYASWYQQKPGQAPVLVIYGKNNRPSGIPDRFSGSSSGNTASLTITGAQAEDEADYYCSSRDSSGNHWVFGGGTELTVLG
In the case of B10, in experiment [7], the “IC50 (nM) APRIL” value is 215000 nM and the “IC50 APRIL (Δ TACI 30-110-Fc)” value worked out at 55.8 ratio. For the same molecule, in experiment [8], the “IC50 (nM) BAFF” value was 2500 nM and the “IC50 BAFF (Δ TACI 30-110-Fc)” value worked out at 0.43 ratio. Besides, the “IC50 (pM) BAFF” value in experiment [5] was found to be 2260 pM. In addition, in experiment [6], the “BAFF IC50 (pM)” value came out at 2200 pM and the “BAFF IC50 (Δ WT)” value is 1.18 ratio.

These data come from patent US20240279310A1 (ALPINE IMMUNE SCIENCES, published 2024).
